Assay results reported in PMC3467058 (Nucleic Acids Research, 2012).

Target: T1, Aeropyrum pernix aEF1α (residues 7-437), C-terminally His-tagged, wild type (Aeropyrum pernix, UniProt Q9YAV0 7-437)
T1 sequence: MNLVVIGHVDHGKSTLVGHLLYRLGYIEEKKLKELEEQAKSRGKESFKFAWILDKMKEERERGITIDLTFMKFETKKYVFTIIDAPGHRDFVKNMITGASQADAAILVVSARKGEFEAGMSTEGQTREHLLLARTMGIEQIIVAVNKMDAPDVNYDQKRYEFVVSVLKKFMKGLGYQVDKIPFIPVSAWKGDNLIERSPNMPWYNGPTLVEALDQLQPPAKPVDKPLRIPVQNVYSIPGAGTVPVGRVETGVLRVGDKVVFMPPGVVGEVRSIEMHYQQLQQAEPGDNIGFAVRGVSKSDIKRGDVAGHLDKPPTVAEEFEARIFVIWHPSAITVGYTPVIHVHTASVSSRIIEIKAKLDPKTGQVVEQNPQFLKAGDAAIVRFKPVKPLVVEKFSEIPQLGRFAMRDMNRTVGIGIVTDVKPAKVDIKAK
Assay: pull-down

B1: archaeal RF1 (aRF1), archaeal class I release factor, Aeropyrum pernix (natural protein)
chain: MSQGRLEERLTISKRELARLLKELKKWSAPATVLLSLYIPPGRPLSDVMTLLRQEYSITDNIKLKRTRQAVKRALSAAMDRLQMLTSTPPNGLVLFCGEDMSTGKFECFMFSPPEPIRVFYYRTDKRFITDFLEDMVEDNNAIGIIIVERDQATIGLLKGARLEVLKELEGFVPGKHKMGGQSQRRYERIIEQMVDEFFKKVGEEASNLLVPLAEKGVLKGVIVAGPGLAKQEFVEGNYLDYRLKKILAPELVDVAYQGLQGLKEAVMKAEKVVEAQMYRDAVNAMEEFKLHLAKGTGMIVYGEKDVEAALEMGAVKTLLIHESREDLEEWVEKAKSSGAQVIVVPESLAEAEWFLKTFGGLAGILRFRISTV
binding result: binds
